Data published in patent US20140298544A1, “Engineered PEP carboxylase variants for improved plant productivity” (PIONEER HI BRED INTERNATIONAL INC, priority 2011, published 2014).
Substitutions are numbered along the chain they refer to. Where two headings read alike, the source gives them in different places.

B1: 3D10-G8: maize C4 PEPC variant, 14 amino acid substitutions, SEQ ID NO: 20 (protein)
chain: MASTKAPGPGEKHHSIDAQLCQLVPGKVSEDDKLIEYDALLVDRFLNILQDLHGPSLREFVQECYEVSADYEGKGDTTKLGELGAKLTGLAPADAILVASSILHMLNLANLAEEAQIALRRRNSKLKKGGFADEGSATTESDIEETLKRLVSEVGKSPEEVFEALKDQTVDLVFTAHPTQSARRSLLQKNARIRNCLTQLNAKDITDDDKQELDEALQREIQAAFRTDEIRRAQPTPQDEMRYGMSYIHETVWKGVPKFLRRVDTALKNIGINERLPYNVSLIRFSSWMGGDRDGNPRVTPEVTRDVCLLARMMAANLYIDQIEELMFELSMWRCNDELRVRAEELHASAGSKVTKYYIEFWKQIPPNEPYRVILGHVRDKLYNTRERARHLLASGVSEISAESSFTSIEEFLEPLELCYKSLCDCGDKAIADGSLLDLLRQVFTFGLSLVKLDIRQESERHTDVIDAITTYLGIGSYREWSEDKRQEWLLSELKGKRPLLPPDLPQTDEIADVIGAFHVLAELPPDSFGPYIISMATAPSDVLAVELLQRECGIKQPLPVVPLFERLADLQSAPASVERLFSVDWYMDRIKGKQQVMVGYSDSGKDAGRLSAAWQLYKAQEEMAQVAKRYGVKLTLFHGRGGTVGRGGGPTHLAILSQPPDTINGSIRVTVQGEVIEFCFGEEHLCFQTLQRFTAATLEHGMHPPVSPKPEWRKLMDEMAVVATEEYRSVVVKEPRFVEYFRSATPETEYGRMNIGSRPAKRRPGGGITTLRAIPWIFSWTQTRFHLPVWLGVGAAFKWAIDKDVKNFQVLKEMYNEWPFFRVTLDLLEMVFAKGDPGIAGLYDELLVAEELKPFGKQLRDKYVETQQLLLQIAGHKDILEGDPFLKRGLVLRNPYITTLNVFQAYTLKRIRDPNFKVTPQPPLSKEFADENKPAGLVKLNPASEYPPGLEDTLILTMKGIAAGMQNTG
modifications: shuffled variant
B2: 3D37-F3: maize C4 PEPC variant, 10 amino acid substitutions, SEQ ID NO: 10 (protein)
chain: MASTKAPGPGEKHHSIDAQLRQLVPGKVSEDDKLIEYDALLVDRFLNILQDLHGPSLREFVQECYEVSADYEGKGDTTKLGELGAKLTGLAPADAILVASSILHMLNLANLAEEVQIARRRRNSKLKKGGFADEGSATTESDIEETLKRLVSEVGKSPEEVFEALKNQTVDLVFTAHPTQSARRSLLQKNAGIRNCLTQLNAKDITDDDKQELDEALQREIQAAFRTDEIRRAQPTPQDEMRYGMSYIHETVWKGVPKFLRRVDTALKNIGINERLPYNVSLIRFSSWMGGDRDGNPRVTPEVTRDVCLLARMMAANLYIDQIEELMFELSMWRCNDELRVRAEELQSSAGSKVTKYYIEFWKQIPPNEPYRVILGHVRDKLYNTRERARHLLASGVSEISAESSFTSIEEFLEPLELCYKSLCDCGDKAIADGSLLDLLRQVFTFGLSLVKLDIRQESERHTDVIDAITTHLGIGSYREWSEDKRQEWLLSELKGKRPLLPPDLPQTDEIADVIGAFHVLAELPPDSFGPYIISMATAPSDVLAVELLQRECGIKQPLPVVPLFERLADLQSAPASVERLFSVDWYMDRIKGKQQVMVGYSDSGKDAGRLSAAWQLYRAQEEMAQVAKRYGVKLTLFHGRGGTVGRGGGPTHLAILSQPPDTINGSIRVTVQGEVIEFCFGEEHLCFQTLQRFTAATLEHGMHPPVSPKPEWRKLMDEMAVVATEEYRSVVVKEPRFVEYFRSATPETEYGRMNIGSRPAKRRPGGGITTLRAIPWIFSWTQTRFHLPVWLGVGAAFKWAIDKDVKNFQVLKEMYNEWPFFRVTLDLLEMVFAKGDPGIAGLYDELLVAEELKPFGKQLRDKYVETQQLLLQIAGHKDILEGDPYLKQGLVLRNPYITTLNVFQAYTLKRIRDPNFKVTPQPPLSKEFADENKPAGLVKLNPASEYPPGLEDTLILTMKGIAAGMQNTG
modifications: shuffled variant
B3: WT: wild-type maize C4 PEPC enzyme, SEQ ID NO: 26 (protein)
chain: B2 chain with R119H, G192R, Q347H, A350S, K495R, I555V, K556R, W800F, K807R, Y886F
modifications: Zea mays

Key:
maize C4 PEPC [1] = experiment: Kinetic and regulatory properties of PEPC variants (expressed in E. coli); assay type: biochemical; settings: for HCO3 S0.5 / HCO3 kcat/S0.5 / HCO3 kcat/S0.5 % wt: bicarbonate substrate; for Ki / Malate Ki % wt: inhibitor malate
Description: (§1) Libraries of modified PEPC polynucleotides were generated using recursive sequence recombination methods (Stemmer, Proc. Natl. Acad. Sci USA 91:10747-10751; Ness, et. al., Nature Biotechnology 20:1251-1255), also known as gene shuffling methods. These libraries incorporated diversity from related PEPC enzymes and also incorporated other designed and random changes. The starting polynucleotide sequence in which the diversity was incorporated was the maize C4 PEPC as shown in SEQ ID NO: 25. Each PEPC variant was expressed in E. coli as a thioredoxin fusion using the pET 32 expression vector (Novagen) with the E. coli expression strain Rosetta gami 2 BL21 DE3 pLYS S. Cultures expressing the variants were grown in 96-well culture blocks, lysed, and then PEPC activity and PEPC protein abundance were determined. The variants with high specific activity were subjected to further rounds of shuffling, for a total of 3 rounds. Examples of nucleotide and amino acid sequences of PEPC variants obtained with this method are SEQ ID NO: 4 to 24.
(§2) Detailed kinetic studies of PEPC variants were done in accordance with methods known in the art. See, for example, Tovar-Mendez et al. (2000) Plant Physiol. 123: 149-160; Tover-Mendez et al. (1998) Biochem. J. 332: 633-642.
(§3) PEPC variants had several improved properties in comparison with wild type PEPC, including greater affinity (lower S0.5 values) with respect to the bicarbonate substrate, greater Kcat/S0.5 values with the bicarbonate or PEP substrates, greater activation (lower A0.5 values) with […] or glycine as activators and greater Ki values with malate as inhibitor.

maize C4 PEPC [2] = molecular target: T1, maize C4 PEPC (Zea mays, UniProt P04711, A239D/A736P/F800W/F886Y/H119R/H347Q/P482S/R192G/R495K/R556K/R807K/S350A/V555I); experiment: as above; assay type: biochemical; settings: relative to wild type
T1 construct: thioredoxin; made in house; host or cells: E. coli Rosetta gami 2 BL21 DE3 pLYS S
Description: as §1, §2, §3

[3] = PEP substrate, relative to wild type
[4] = PEP substrate, with activators vs no activators
[5] = activator Glc-6-P, read-out: Glc-6-P A0.5
[6] = activator Glc-6-P, relative to wild type
[7] = activator glycine, read-out: Glycine A0.5
[8] = activator glycine, relative to wild type

| Molecule | PEP, no activators kcat/S0.5 (maize C4 PEPC [1]; PEP substrate) [M⁻¹ s⁻¹] | PEP, no activators kcat/S0.5 % wt (maize C4 PEPC [1]; [3]) [% wt] | PEP, with activators kcat/S0.5 (maize C4 PEPC [1]; PEP substrate) [M⁻¹ s⁻¹] | kcat/S0.5 Fold incr. (maize C4 PEPC [1]; [4]) [Fold incr.] | PEP, with activators kcat/S0.5 % wt (maize C4 PEPC [1]; [3]) [% wt] | Glc-6-P Vmax Fold incr (maize C4 PEPC [1]; activator Glc-6-P) [Fold incr] | EC50 (maize C4 PEPC [1]; [5]) [µM] | Glc-6-P A0.5 % wt (maize C4 PEPC [1]; [6]) [% wt] | Glycine Vmax Fold incr (maize C4 PEPC [1]; activator glycine) [Fold incr] | EC50 (maize C4 PEPC [1]; [7]) [µM] | Glycine A0.5 % wt (maize C4 PEPC [1]; [8]) [% wt] | HCO3 S0.5 (maize C4 PEPC [1]) [mM] | HCO3 kcat/S0.5 (maize C4 PEPC [1]) [M⁻¹ s⁻¹] | HCO3 kcat/S0.5 % wt (maize C4 PEPC [1]; relative to wild type) [% wt] | Ki (maize C4 PEPC [1]) [µM] | Malate Ki % wt (maize C4 PEPC [1]; relative to wild type) [% wt] | further results |
| --- | --- | --- | --- | --- | --- | --- | --- | --- | --- | --- | --- | --- | --- | --- | --- | --- | --- |
| B1 | 86200 | 253 | 4.613e+06 | 53.5 | 189 | 2.5 | 920 | 14 | 3.6 | 230 | 6 | 0.0255 | 3.2e+06 | 151 | 5000 | 1250 | – |
| B2 | 71500 | 210 | 5.01e+06 | – | 205 | 7.2 | 4460 | 66 | 5.8 | 930 | 26 | 0.0167 | 3.512e+06 | 166 | 2400 | 600 | affinity (S0.5 value) for bicarbonate, in words (maize C4 PEPC [2]): higher affinity; kcat/S0.5 Fold incr. (maize C4 PEPC [1]): 70.1 Fold incr.; Ki for malate, in words (maize C4 PEPC [1]; relative to wild type): increased Ki; activation by glucose-6-phosphate, in words (maize C4 PEPC [1]; relative to wild type): increased activation; activation by glycine, in words (maize C4 PEPC [1]; relative to wild type): increased activation |
| B3 | 34100 | 100 | 2.443e+06 | 71.6 | 100 | 23.1 | 6800 | 100 | 15.9 | 3620 | 100 | 0.0282 | 2.122e+06 | 100 | 400 | 100 | – |
